Residue numbers refer to the chain shown, from its start.

The values below come from patent publication US20170022287A1 (Chugai, published 2017).

Assay [1] deals with T1, CRD2-4.
T1 construct: also called fragmented human CD137-Fc fusion protein CRD2-4
Put plainly: ELISA, coated CD137-Fc protein 2 µg/mL, antibody 10 or 5 µg/mL, absorbance 620 nm; Non (uncoated well) 0.065. Here is the method: (§1) Fragmented human CD137-Fc fusion proteins were diluted to 2 μg/mL in an aqueous sodium carbonate solution adjusted to pH9.6. Fifty μL of a diluted fragmented human CD137-Fc fusion protein was added individually to each well of a Nunc MaxiSorp flat-bottom 96 well plate (Nunc). This was allowed to stand at 4° C. overnight or longer, and then the plate was allowed to stand at room temperature for one hour so that the plate has the same temperature as the room temperature. The solution containing the fragmented human CD137-Fc fusion protein was removed by tilting, and each well was washed three times with 300 μL of Wash buffer (TBS containing 0.1% Tween20, TaKaRa). Next, 150 μL of blocking buffer (TBS containing 2% BSA) was added to each well, and this was allowed to stand for one hour or more. The blocking buffer was removed by tilting, and each well was washed three times with Wash Buffer in a similar manner to an earlier step. Then, 50 μL of an antibody solution prepared in advance by dilution with TBS to 10 μg/mL or 5 μg/mL was added to each well. This was subjected to a speed of 600 rpm or so for one hour at room temperature to bind the antibody to the immobilized antigen. […] 100 μL of a secondary antibody solution produced by 1000-fold dilution with TBS containing 0.1% Tween20 was added to each well. For the secondary antibody, ANTIBODY ALKALINE PHOSPHATASE CONJUGATE HUMAN IMMUNOGLOBULIN ABSORBED Goat Anti-Human Kappa Alkaline Phosphate from BIOSOURCE was used in the case of antibodies carrying a Kappa chain, and Human Lambda Light Chain Antibody; Goat anti-Human Lambda Light Chain Antibody Alkaline Phosphatase Conjugated from BETHYL LABORATORIES INC. was used in the case of antibodies carrying a Lambda chain. […] Color development was performed using the BluePhos Microwell kit from KPL. After the chromogenic reaction was stopped using the AP stop solution from KPL, the absorbance was measured at 620 nm on an absorptiometer.

Assay [2] concerns the target T2, CRD2-3.
T2 construct: also called fragmented human CD137-Fc fusion protein CRD2-3
The description is as above. Here is the method: as §1

For assay [3], the target named is T3, CRD1.
T3 construct: also called fragmented human CD137-Fc fusion protein CRD1
T3 sequence (chain, as listed by the source limits assumed): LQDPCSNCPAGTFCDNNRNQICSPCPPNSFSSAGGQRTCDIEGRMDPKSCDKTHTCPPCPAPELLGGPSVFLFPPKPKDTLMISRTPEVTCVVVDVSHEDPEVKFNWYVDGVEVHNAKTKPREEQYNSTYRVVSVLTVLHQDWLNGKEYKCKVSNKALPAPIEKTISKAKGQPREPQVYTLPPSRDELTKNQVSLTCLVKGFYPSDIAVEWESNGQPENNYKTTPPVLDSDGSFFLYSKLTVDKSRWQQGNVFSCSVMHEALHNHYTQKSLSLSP
The assay is described as above. Here is the method: as §1

Assay [4] addresses full-length human CD137-Fc fusion protein (human). Described as above. Here is the method:
as §1

The target of assay [5] is T4, CRD3-4.
T4 construct: also called fragmented human CD137-Fc fusion protein CRD3-4
T4 sequence (chain, as listed by the source limits assumed): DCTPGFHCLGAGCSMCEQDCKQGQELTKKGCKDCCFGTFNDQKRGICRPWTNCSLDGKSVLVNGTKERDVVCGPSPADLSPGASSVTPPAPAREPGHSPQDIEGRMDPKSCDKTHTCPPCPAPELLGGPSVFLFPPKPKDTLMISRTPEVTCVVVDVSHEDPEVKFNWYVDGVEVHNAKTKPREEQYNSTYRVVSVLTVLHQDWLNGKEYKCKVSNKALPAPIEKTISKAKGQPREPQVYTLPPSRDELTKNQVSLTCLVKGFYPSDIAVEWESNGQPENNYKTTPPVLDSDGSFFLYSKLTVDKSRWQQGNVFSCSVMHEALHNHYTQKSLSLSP
The assay is described as above. Here is the method: as §1

Assay [6] addresses T5, CRD1-2.
T5 construct: also called fragmented human CD137-Fc fusion protein CRD1-2
The assay is described as above. Here is the method: as §1

Assay [7] deals with T1, CRD2-4. The experiment in a line: ELISA, coated CD137-Fc protein 2 µg/mL, antibody 10 or 5 µg/mL; absorbance 620 nm divided by that of the uncoated well. Here is the method: as §1
(In general: In an ELISA, binding on a coated surface is turned into a signal by an enzyme label.)

Assay [8] addresses T2, CRD2-3. The description is as above. Here is the method: as §1
Assay [9] addresses T3, CRD1. The assay is described as above. Here is the method: as §1
Assay [10] addresses full-length human CD137-Fc fusion protein (human). Described as above. Here is the method:
as §1

Assay [11] concerns the target T4, CRD3-4. Described as above. Here is the method:
as §1

Assay [12] addresses T5, CRD1-2. The assay is described as above. Here is the method:
as §1

The target of assay [13] is T1, CRD2-4. Put plainly: ELISA, coated CD137-Fc protein 2 µg/mL, antibody 10 or 5 µg/mL, absorbance 620 nm; Non (uncoated well) 0.3465. Here is the method: as §1
Assay [14] concerns the target T2, CRD2-3. The assay is described as above. Here is the method: as §1
Assay [15] has as its target T3, CRD1. The description is as above. Here is the method: as §1
The target in assay [16] is full-length human CD137-Fc fusion protein (human). Described as above. Here is the method: as §1
full-length human CD137-Fc fusion protein (human), sequence (chain, as listed by the source limits assumed): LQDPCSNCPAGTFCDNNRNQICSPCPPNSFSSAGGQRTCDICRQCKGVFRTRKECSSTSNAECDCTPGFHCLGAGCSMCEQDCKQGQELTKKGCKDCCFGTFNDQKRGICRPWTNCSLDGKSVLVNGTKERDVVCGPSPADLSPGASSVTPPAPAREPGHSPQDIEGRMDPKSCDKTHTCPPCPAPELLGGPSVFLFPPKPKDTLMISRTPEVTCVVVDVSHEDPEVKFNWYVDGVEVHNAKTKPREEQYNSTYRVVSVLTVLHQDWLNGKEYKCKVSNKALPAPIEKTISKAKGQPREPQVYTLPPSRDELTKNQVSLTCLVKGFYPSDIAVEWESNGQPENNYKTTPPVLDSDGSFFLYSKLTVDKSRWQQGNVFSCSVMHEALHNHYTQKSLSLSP
Assay [17] concerns the target T6, CRD1-3.
T6 construct: also called fragmented human CD137-Fc fusion protein CRD1-3
Described as above. Here is the method:
as §1

Assay [18] has as its target T4, CRD3-4. The description is as above. Here is the method: as §1
The target in assay [19] is T5, CRD1-2. Described as above. Here is the method:
as §1

Assay [20] concerns the target T6, CRD1-3. Put plainly: ELISA, coated CD137-Fc protein 2 µg/mL, antibody 10 or 5 µg/mL; absorbance 620 nm divided by that of the uncoated well. Here is the method:
as §1

Assay [21] concerns the target T1, CRD2-4. Put plainly: ELISA, coated CD137-Fc protein 2 µg/mL, antibody 10 or 5 µg/mL, absorbance 620 nm; Non (uncoated well) 0.166. Here is the method:
as §1

Assay [22] concerns the target T2, CRD2-3. The description is as above. Here is the method: as §1
In assay [23] the target is T3, CRD1. The assay is described as above. Here is the method:
as §1

The target in assay [24] is full-length human CD137-Fc fusion protein (human). The description is as above. Here is the method:
as §1

For assay [25], the target named is T6, CRD1-3. Described as above. Here is the method:
as §1

Assay [26] deals with T4, CRD3-4. The description is as above. Here is the method: as §1
Assay [27] addresses T5, CRD1-2. The description is as above. Here is the method:
as §1

T5 sequence (chain, as listed by the source limits assumed): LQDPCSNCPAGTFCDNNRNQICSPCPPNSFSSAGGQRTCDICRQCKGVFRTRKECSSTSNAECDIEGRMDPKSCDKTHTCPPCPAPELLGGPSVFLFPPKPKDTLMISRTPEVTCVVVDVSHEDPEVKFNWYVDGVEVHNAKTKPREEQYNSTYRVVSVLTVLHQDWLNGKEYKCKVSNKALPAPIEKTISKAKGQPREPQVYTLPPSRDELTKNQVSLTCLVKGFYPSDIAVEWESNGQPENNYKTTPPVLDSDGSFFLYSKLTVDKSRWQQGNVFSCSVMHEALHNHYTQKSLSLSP
T6 sequence (chain, as listed by the source limits assumed): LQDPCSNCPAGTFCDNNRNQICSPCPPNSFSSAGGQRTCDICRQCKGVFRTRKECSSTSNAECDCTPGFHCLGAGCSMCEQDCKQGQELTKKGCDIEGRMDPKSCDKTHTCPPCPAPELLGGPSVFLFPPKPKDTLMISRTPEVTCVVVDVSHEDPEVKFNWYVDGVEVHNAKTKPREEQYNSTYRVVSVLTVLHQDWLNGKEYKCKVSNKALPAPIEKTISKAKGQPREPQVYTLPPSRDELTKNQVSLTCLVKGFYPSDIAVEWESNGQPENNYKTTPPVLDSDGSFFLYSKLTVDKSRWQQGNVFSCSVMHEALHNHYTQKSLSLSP
T2 sequence (chain, as listed by the source limits assumed): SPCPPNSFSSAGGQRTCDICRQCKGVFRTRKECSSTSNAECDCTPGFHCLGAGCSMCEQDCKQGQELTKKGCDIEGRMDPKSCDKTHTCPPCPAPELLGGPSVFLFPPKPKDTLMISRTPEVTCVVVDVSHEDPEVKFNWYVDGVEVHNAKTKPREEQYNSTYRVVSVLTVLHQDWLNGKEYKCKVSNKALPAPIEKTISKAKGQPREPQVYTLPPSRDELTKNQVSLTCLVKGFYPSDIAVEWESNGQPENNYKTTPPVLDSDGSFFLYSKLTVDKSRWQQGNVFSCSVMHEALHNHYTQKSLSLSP
T1 sequence (chain, as listed by the source limits assumed): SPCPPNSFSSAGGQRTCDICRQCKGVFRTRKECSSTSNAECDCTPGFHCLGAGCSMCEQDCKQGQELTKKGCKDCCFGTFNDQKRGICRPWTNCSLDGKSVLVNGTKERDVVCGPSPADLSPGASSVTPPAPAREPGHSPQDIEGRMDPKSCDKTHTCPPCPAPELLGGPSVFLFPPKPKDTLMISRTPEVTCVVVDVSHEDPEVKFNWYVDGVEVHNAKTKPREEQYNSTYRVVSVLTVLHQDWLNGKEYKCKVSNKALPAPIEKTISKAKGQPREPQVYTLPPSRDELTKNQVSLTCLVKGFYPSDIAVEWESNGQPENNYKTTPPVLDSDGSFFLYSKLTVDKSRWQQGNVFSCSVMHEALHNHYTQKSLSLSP

B1: R1 (antibody, V domains shown)
VH: EVQLVQSGAEVKKPGASVKVSCKASGYTFTSYYTHWVRQAPGQGLEWMGIINPSGGSTSYAQKFQGRVTMTRDTSTSTVYMELSSLRSEDTAVYYCARGAPEYSSSSDYWGQGTMVTVSS
VL: QSALTQPASVSGSPGQSITISCTGTSSDVGGYNYVSWYQQHPGKAPKLMIYDVSNRPSGVSNRFSGSKSGNTASLTISGLQAEDEADYYCSSYTSSSTRWVFGGGTKLTVL
notes: Naive library clone; Fab on phage in the phage ELISA
For B1, the “ELISA color development level” value in assay [1] was 0.0935; in assay [2], 0.117; in [3], 0.123; in assay [4] it was 1.79; in [5], 0.0875; in [6] it was 0.865. In addition, the “Ratio with respect to Non-Coating” value in [7] worked out at 1.4; in [8], 1.8; in [9] it was 1.9; in [10], 27.6; in [11], 1.3; in assay [12], 13.3.

B2: R18 (antibody, V domains shown)
VH: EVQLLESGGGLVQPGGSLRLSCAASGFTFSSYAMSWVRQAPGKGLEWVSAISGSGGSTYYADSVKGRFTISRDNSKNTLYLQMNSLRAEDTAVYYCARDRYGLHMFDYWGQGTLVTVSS
VL: DIQMTQSPSSLSASVGDRVTITCRASQSISSYLNWYQQKPGKAPKLLIYAASSLQSGVPSRFSGSGSGTDFTLTISSLQPEDFATYYCLQFNSFPLTFGGGTKVEIK
notes: Synthetic library clone; Fab on phage in the phage ELISA
Turning to B2, the “ELISA color development level” value in assay [13] stood at 2.27; in assay [14], 2.49; in assay [15], 0.4; in assay [16], 2.03; in assay [17] it was 2.29; in assay [18], 2.65. For the same molecule, the “ELISA color development level” value in assay [19] is 0.419. The “Ratio with respect to Non-Coating” value came out at 6.6 in assay [7]; 7.2 in assay [8]; 1.2 in assay [9]; 5.8 in [10]; 6.6 in assay [20]; 7.7 in assay [11]. The “Ratio with respect to Non-Coating” value in assay [12] worked out at 1.2.

B3: R17 (antibody, V domains shown)
VH: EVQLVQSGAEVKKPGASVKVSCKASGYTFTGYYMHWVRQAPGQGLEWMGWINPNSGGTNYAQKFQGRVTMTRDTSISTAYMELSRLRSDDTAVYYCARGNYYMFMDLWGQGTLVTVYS
VL: B2 VL with N92T
notes: as for B2
For B3, the “ELISA color development level” value was found to be 1.92 in assay [21]; 2.44 in assay [22]; 0.197 in assay [23]; 1.34 in assay [24]; 2.05 in [25]; 2.47 in assay [26]. Moreover, in assay [27], the “ELISA color development level” value came to 0.169. The “Ratio with respect to Non-Coating” value in assay [7] turned out to be 11.6; in assay [8], 14.7; in assay [9], 1.2; in assay [10] it was 8.1; in assay [20], 12.4; in [11], 14.9. Also, in assay [12], the “Ratio with respect to Non-Coating” value was found to be 1.
